In patent US20210330742:

Columns and labels:
[1] = target: Myc-RUNX3, Q13761
[2] = target: RUNX3 (Runt-related transcription factor 3) protein, Q13761
Chain of RUNX3 (Runt-related transcription factor 3) protein, Q13761 (Q13761 whole entry): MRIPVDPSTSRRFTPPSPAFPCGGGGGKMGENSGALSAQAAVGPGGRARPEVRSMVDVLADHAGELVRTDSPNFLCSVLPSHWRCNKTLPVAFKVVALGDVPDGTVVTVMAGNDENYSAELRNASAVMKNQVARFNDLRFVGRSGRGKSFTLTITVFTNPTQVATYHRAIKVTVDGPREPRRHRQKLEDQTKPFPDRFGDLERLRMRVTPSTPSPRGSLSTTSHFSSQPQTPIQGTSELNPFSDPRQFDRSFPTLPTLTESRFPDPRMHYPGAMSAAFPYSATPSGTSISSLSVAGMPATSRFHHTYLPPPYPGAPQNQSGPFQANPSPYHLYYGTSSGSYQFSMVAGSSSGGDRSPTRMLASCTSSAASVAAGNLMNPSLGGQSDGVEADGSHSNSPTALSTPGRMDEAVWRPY

Chain of Myc-RUNX3, Q13761 (Q13761 whole entry): as above

B1: CDK4-WT (over-expressed) (protein)
chain: MATSRYEPVAEIGVGAYGTVYKARDPHSGHFVALKSVRVPNGGGGGGGLPISTVREVALLRRLEAFEHPNVVRLMDVCATSRTDREIKVTLVFEHVDQDLRTYLDKAPPPGLPAETIKDLMRQFLRGLDFLHANCIVHRDLKPENILVTSGGTVKLADFGLARIYSYQMALTPVVVTLWYRAPEVLLQSTYATPVDMWSVGCIFAEMFRRKPLFCGNSEADQLGKIFDLIGLPPEDDWPRDVSLPRGAFPPRGPRPVQSVVPEMEESGAQLLLEMLTFNPHKRISAFRALQHSYLHKDEGNPE
- phosphorylation of RUNX3 at Ser-356 (immunoblot) [1]: The over-expressed CDK4-WT phosphorylated Myc-RUNX3 2 to 4 hours after serum stimulation

B2: Flag-CDK4-T172A (protein)
chain: MATSRYEPVAEIGVGAYGTVYKARDPHSGHFVALKSVRVPNGGGGGGGLPISTVREVALLRRLEAFEHPNVVRLMDVCATSRTDREIKVTLVFEHVDQDLRTYLDKAPPPGLPAETIKDLMRQFLRGLDFLHANCIVHRDLKPENILVTSGGTVKLADFGLARIYSYQMALAPVVVTLWYRAPEVLLQSTYATPVDMWSVGCIFAEMFRRKPLFCGNSEADQLGKIFDLIGLPPEDDWPRDVSLPRGAFPPRGPRPVQSVVPEMEESGAQLLLEMLTFNPHKRISAFRALQHSYLHKDEGNPE
- phosphorylation of RUNX3 at Ser-356 (immunoblot) [2]: did not phosphorylate the 356th serine of RUNX3
